Measurements reported in patent US20190382488A1 (IMAGINAB, published 2019).

How the values were obtained:
[1] = target: T1, recombinant human CD8 (rhCD8) (human, UniProt P01732 22-182); assay: SPR (summary table)
T1 construct: Soluble purified recombinant protein; also called purified recombinant human CD8 protein; soluble CD8
Text: (§1) Surface plasma resonance (SPR) was used to determine the binding affinity for all the IAb_Mb_CD8 variants to recombinant human CD8 (Table 8.0). The minibody protein in the supernatant was captured on to the BIAcore chip using an anti-human IgG (Fc-specific) antibody. The amount of minibody captured on the chip was normalized to enable a direct comparison of binding affinity between the variants as a kinetic “scouting” experiment to rank affinities. The rhCD8 protein was passed over the captured minibody protein to measure binding.
(§2) Table 8.0 summarizes the measured association (ka), dissociation (kd), and kD constants for the IAb_Mb_CD8 variants binding to recombinant hCD8. The variants were captured on a BIAcore chip using anti-human Fc-specific IgG antibody.

cell-surface human CD8 [2] = target: T2, cell-surface human CD8 (human, UniProt P01732 22-235); assay: flow cytometry, HPB-ALL cells
T2 construct: the cell is named under assay; also called cellular human CD8; CD8 on PC3-CD8 cells
Description: (§3) Flow cytometry analysis of minibodies binding to cell-surface human CD8 on HPB-ALL cells was performed. Cells were stained with respective concentrations of minibody, washed, and then stained with a secondary anti-human IgG (Fc-specific) APC-conjugated antibody. Analysis was performed with 10,000 events/point in triplicate for each concentration. The results are shown in graph format in FIG. 29A. The graph presents the normalized mean fluorescence intensity (MFI) vs. the log of the concentration (nM). Error bars represent the standard error. The data indicates an EC₅₀ of 0.15 nM and 0.19 nM.
as §3, with “analysis of IgG2 minibodies binding” for “analysis of minibodies binding”, “in FIG. 29E. The graph” for “in FIG. 29A. The graph”, “EC₅₀ of 0.1 nM, 0.13 nM, and 0.08” for “EC₅₀ of 0.15 nM and 0.19”, “nM, and 0.08 nM.” for “nM and 0.19 nM.”

cell-surface human CD8 [3] = target: T2, cell-surface human CD8; assay: flow cytometry, primary human CD8+ T cells
Description: as §3, with “primary human CD8+ T” for “HPB-ALL”, “29B.” for “29A.”, “0.1” for “0.15”, “0.26” for “0.19”

cell-surface human CD8 [4] = target: T2, cell-surface human CD8; assay: flow cytometry, PC3 cells overexpressing CD8
cell-surface human CD8 [5] = target: T2, cell-surface human CD8; assay: flow cytometry on HPB-ALL cells, anti-human IgG (Fc-specific)-APC
Description: as §3

cell-surface human CD8 [6] = target: T2, cell-surface human CD8; assay: as above; remark: listed apart in the source
cell-surface human CD8 [7] = target: T2, cell-surface human CD8; assay: as above; remark: listed apart in the source
Description: as §3, with “analysis of IgG2 minibodies binding” for “analysis of minibodies binding”, “in FIG. 29E. The graph” for “in FIG. 29A. The graph”, “EC₅₀ of 0.1 nM, 0.13 nM, and 0.08” for “EC₅₀ of 0.15 nM and 0.19”, “nM, and 0.08 nM.” for “nM and 0.19 nM.”

[8] = target: T1, recombinant human CD8 (rhCD8); assay: SPR (BIAcore), minibody captured via anti-human IgG Fc, hCD8 analyte at 50 nM
Text: as §1, §2

cell-surface human CD8 [9] = target: T2, cell-surface human CD8; assay: flow cytometry on primary human CD8+ T cells, anti-human IgG (Fc-specific)-APC
Description: as §3, with “primary human CD8+ T” for “HPB-ALL”, “29B.” for “29A.”, “0.1” for “0.15”, “0.26” for “0.19”

cell-surface human CD8 [10] = target: T2, cell-surface human CD8; assay: flow cytometry on PC3 cells overexpressing CD8, anti-human IgG (Fc-specific)-APC
Description: Flow cytometry analysis of minibody (+/−lysine conjugation to Desferoxamine) binding to PC3 cells overexpressing CD8 was performed. Cells were stained with respective concentrations of minibody, washed, and then stained with a secondary anti-human IgG (Fc-specific) APC-conjugated antibody. Analysis was performed with 10,000 events/point in triplicate for each concentration. The results are shown in graph format in FIG. 29D. The graph presents the mean fluorescence intensity (MFI) vs. the log of the concentration (nM). Error bars represent the standard error. The data indicates an EC₅₀ of 0.64 nM and 0.83 nM.

cell-surface human CD8 [11] = target: T2, cell-surface human CD8; assay: flow cytometry, HPB-ALL cells, Protein L-biotin and streptavidin-APC
Description: (§4) Flow cytometry analysis of cys-diabody binding to cell-surface human CD8 on HPB-ALL cells was performed. Cells were stained with respective concentrations of cys-diabody, washed, stained with a secondary Protein L conjugated to Biotin, washed, then stained with a tertiary streptavidin-APC. Analysis was performed with 10,000 events/point in triplicate for each concentration. The results are shown in graph format in FIG. 30A. The graph presents the mean fluorescence intensity (MFI) vs. the log of the concentration (nM). Error bars represent the standard error. The data indicates an EC₅₀ of 0.04 nM.

cell-surface human CD8 [12] = target: T2, cell-surface human CD8; assay: flow cytometry on HPB-ALL cells, Protein L-biotin then streptavidin-APC
Description: as §4

cell-surface human CD8 [13] = target: T2, cell-surface human CD8; assay: as above; remark: listed apart in the source
Description: as §4, with “of cys-diabody (+/−C-terminal cysteine conjugation to Desferoxamine) binding to” for “of cys-diabody binding to”, “in FIG. 30C. The graph” for “in FIG. 30A. The graph”, “of 0.04 nM and 0.06 nM.” for “of 0.04 nM.”

cell-surface human CD8 [14] = target: T2, cell-surface human CD8; assay: flow cytometry, primary human CD8+ T cells, Protein L-biotin and streptavidin-APC
Description: as §4, with “primary human CD8+ T” for “HPB-ALL”, “30B.” for “30A.”, “0.02” for “0.04”

cell-surface human CD8 [15] = target: T2, cell-surface human CD8; assay: flow cytometry on primary human CD8+ T cells, Protein L-biotin then streptavidin-APC
Description: as §4, with “primary human CD8+ T” for “HPB-ALL”, “30B.” for “30A.”, “0.02” for “0.04”

[16] = target: T1, recombinant human CD8 (rhCD8); assay: SPR (summary table); Table 9 summary

T2 sequence (P01732 22-235 limits assumed): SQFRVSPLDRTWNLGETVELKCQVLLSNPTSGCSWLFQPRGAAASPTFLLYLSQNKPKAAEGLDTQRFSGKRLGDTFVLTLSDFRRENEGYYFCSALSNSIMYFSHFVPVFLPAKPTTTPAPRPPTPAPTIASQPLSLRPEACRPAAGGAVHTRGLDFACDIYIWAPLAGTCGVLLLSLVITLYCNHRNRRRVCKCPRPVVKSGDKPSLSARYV
T1 sequence (P01732 22-182 limits assumed): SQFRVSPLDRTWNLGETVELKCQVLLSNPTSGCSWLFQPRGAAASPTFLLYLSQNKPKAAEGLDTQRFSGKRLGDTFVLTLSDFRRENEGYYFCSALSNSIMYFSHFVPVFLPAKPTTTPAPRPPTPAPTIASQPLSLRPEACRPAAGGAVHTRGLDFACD

| EC50 (cell-surface human CD8 [2]) [nM] | EC50 (cell-surface human CD8 [3]) [nM] | EC50 (cell-surface human CD8 [5]) [nM] | Ka [8] [M⁻¹] | Kd [8] [nM] | koff [8] [s⁻¹] | kon [8] [M⁻¹ s⁻¹] | EC50 (cell-surface human CD8 [9]) [nM] | EC50 (read off the curve) (cell-surface human CD8 [9]) [nM] | Binder | other results |
| --- | --- | --- | --- | --- | --- | --- | --- | --- | --- | --- |
| 0.1 | 0.1 | 0.15 | 5.4e+08 | 1.9 | 0.0012 | 640000 | 0.1 | ~0.1 | IAb_Mb1b_CD8 (other, also called IAb M1b CD8) DVQITQSPSSLSASVGDRVTITCRTSRSISQYLAWYQQKPGKVPKLLIYSGSTLQSGVPSRFSGSGSGTDFTLTISSLQPEDVATYYCQQHNENPLTFGGGTKVEIKGSTSGGGSGGGSGGGGSSEVQLVESGGGLVQPGGSLRLSCAASGFNIKDTYIHFVRQAPGKGLEWIGRIDPANDNTLYASKFQGKATISADTSKNTAYLQMNSLRAEDTAVYYCGRGYGYYVFDHWGQGTLVTVSSEPKSCDKTHTCPPCGGGSSGGGSGGQPREPQVYTLPPSRDELTKNQVSLTCLVKGFYPSDIAVEWESNGQPENNYKTTPPVLDSDGSFFLYSKLTVDKSRWQQGNVFSCSVMHEALHNHYTQKSLSLSPGK | Kd [1]: 1.9 nM; EC50 (cell-surface human CD8 [4]): 0.6 nM; EC50 (cell-surface human CD8 [6]): 0.13 nM; EC50 (cell-surface human CD8 [7]): 0.1 nM; EC50 (cell-surface human CD8 [10]): 0.64 nM; EC50 (read off the curve) (cell-surface human CD8 [10]): ~0.7 nM |
|  |  |  |  |  |  |  |  |  | IAb_Cys-Db3b_CD8 (other, Cys-diabody homodimer; also called humanized OKT8 cys-diabody VL-8-VH) DVQITQSPSSLSASVGDRVTITCRTSRSISQYLAWYQQKPGKVPKLLIYSGSTLQSGVPSRFSGSGSGTDFTLTISSLQPEDVATYYCQQHNENPLTFGGGTKVEIKGGGSGGGGEVQLVESGGGLVQPGGSLRLSCAASGFNIKDTYIHFVRQAPGKGLEWIGRIDPANDNTLYASKFQGKATISADTSKNTAYLQMNSLRAEDTAVYYCGRGYGYYVFDHWGQGTLVTVSSGGC | EC50 (cell-surface human CD8 [11]): 0.04 nM; EC50 (cell-surface human CD8 [12]): 0.04 nM; EC50 (cell-surface human CD8 [13]): 0.04 nM; EC50 (cell-surface human CD8 [14]): 0.02 nM; EC50 (cell-surface human CD8 [15]): 0.02 nM |
| 0.19 | 0.26 | 0.19 | 2.6e+08 | 3.9 | 0.0021 | 540000 | 0.26 | ~0.3 | IAb_Mb2b_CD8 (other, also called IAb M2b CD8) EVQLVESGGGLVQPGGSLRLSCAASGFNIKDTYIHFVRQAPGKGLEWIGRIDPANDNTLYASKFQGKATISADTSKNTAYLQMNSLRAEDTAVYYCGRGYGYYVFDHWGQGTLVTVSSGSTSGGGSGGGSGGGGSSDVQITQSPSSLSASVGDRVTITCRTSRSISQYLAWYQQKPGKVPKLLIYSGSTLQSGVPSRFSGSGSGTDFTLTISSLQPEDVATYYCQQHNENPLTFGGGTKVEIKEPKSCDKTHTCPPCGGGSSGGGSGGQPREPQVYTLPPSRDELTKNQVSLTCLVKGFYPSDIAVEWESNGQPENNYKTTPPVLDSDGSFFLYSKLTVDKSRWQQGNVFSCSVMHEALHNHYTQKSLSLSPGK | Kd [16]: 3.6 nM |
